Reference: PMC6039445 (2018)

B1: H3v-47 Fab (Fab, V domains shown)
VH: QVQLVQSGAEVKKPGSSVRVSCKASGDTFSSYSITWVRQAPGHGLQWMGGIFPIFGSTNYAQKFDDRLTITTDDSSRTVYMELTSLRLEDTAVYYCARGASKVEPAAPAYSDAFDMWGQGTLVTVSS
VL: DIVMTQSPGTLSLSPGERATLSCRTSQGVSSSYLAWYQQKPGQAPRLLISGSSSRATGIPDRFSGSGSGRDFTLTISRLEPEDSAVYYCQQYATSPTFGQGTRVEIK
B2: H3v-47 IgG (antibody, V domains shown)
VH: B1 VH
VL: B1 VL

Assays:
Experiment in all cases: BLI
[1] = biological target: A/Panama/2007/1999 H3N2 HA, soluble trimeric (influenza A virus A/Panama/2007/1999 …)
[2] = biological target: HA of A/Brisbane/10/2007 (H3N2) virus (influenza A virus A/Brisbane/10/2007 …)
[3] = biological target: A/Minnesota/11/2010 H3N2v HA, soluble, biotinylated (wild type) (influenza A virus A/Minnesota/11/2010 …)

Row | Binder | Kd [1] | Kd [2] | Kd [3]
1 | B1 | < 5 nM | < 5 nM | 
2 | B2 |  |  | < 0.001 nM
